This note sets out measurements from PMC10873206.

The test has as its target UBE2R1 E108A (human) (UniProt P49427).

Chain of UBE2R1 E108A (human) (P49427 whole entry E108A): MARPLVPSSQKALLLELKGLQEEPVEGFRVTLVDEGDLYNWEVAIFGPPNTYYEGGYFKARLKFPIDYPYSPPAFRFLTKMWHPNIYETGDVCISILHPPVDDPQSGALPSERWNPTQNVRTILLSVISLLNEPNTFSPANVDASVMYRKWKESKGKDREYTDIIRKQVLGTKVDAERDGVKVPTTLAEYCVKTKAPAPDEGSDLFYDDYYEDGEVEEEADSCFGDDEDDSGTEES

Turning to “D77 acceptor ubiquitin R54D (from UniProt P0CG48 1-76) (natural protein)”, the Km of unanchored D77 acceptor ubiquitin for UBE2R1 in di-ubiquitin synthesis (K48R donor ubiquitin, neddylated CUL2–RBX1 WT); saturation not reached, top concentration given was greater than 800 µM.
